Assay results published in publication PMC3161968.

Molecular target: recombinant flagellin type B of P. aeruginosa (P. aeruginosa) (UniProt P72151)
Chain of UniProt P72151 (P72151 whole entry): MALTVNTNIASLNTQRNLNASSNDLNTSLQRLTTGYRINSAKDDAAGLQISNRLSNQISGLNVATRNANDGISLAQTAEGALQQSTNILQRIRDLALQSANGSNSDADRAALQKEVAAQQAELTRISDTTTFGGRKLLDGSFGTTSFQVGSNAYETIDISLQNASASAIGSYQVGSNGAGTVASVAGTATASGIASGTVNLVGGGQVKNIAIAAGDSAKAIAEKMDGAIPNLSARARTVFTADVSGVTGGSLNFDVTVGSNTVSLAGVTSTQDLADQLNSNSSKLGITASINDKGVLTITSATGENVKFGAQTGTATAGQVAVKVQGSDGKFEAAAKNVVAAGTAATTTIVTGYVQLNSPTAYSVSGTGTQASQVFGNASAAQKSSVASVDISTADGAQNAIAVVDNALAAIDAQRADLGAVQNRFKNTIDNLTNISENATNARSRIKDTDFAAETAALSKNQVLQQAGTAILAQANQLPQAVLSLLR

recombinant His-AprA (alkaline protease of P. aeruginosa) (from UniProt Q03023 10-479) (enzyme)
inhibition of flagellin-induced IL-8 production by HEK/TLR5 cells (30 ng/ml P. aeruginosa flagellin; the pair whose signalling is blocked is m6 with m7); AprA acts by degrading flagellin: 30 ng/mL
